According to publication PMC9352680, “A comprehensive thermodynamic model for RNA binding by the Saccharomyces cerevisiae Pumilio protein PUF4”:
Positions count from the first letter of the chain named. Names and notes keep the numbering of the source.

T1: PUF4 RNA-binding domain (Saccharomyces cerevisiae, UniProt P25339 537-888)
T1 sequence: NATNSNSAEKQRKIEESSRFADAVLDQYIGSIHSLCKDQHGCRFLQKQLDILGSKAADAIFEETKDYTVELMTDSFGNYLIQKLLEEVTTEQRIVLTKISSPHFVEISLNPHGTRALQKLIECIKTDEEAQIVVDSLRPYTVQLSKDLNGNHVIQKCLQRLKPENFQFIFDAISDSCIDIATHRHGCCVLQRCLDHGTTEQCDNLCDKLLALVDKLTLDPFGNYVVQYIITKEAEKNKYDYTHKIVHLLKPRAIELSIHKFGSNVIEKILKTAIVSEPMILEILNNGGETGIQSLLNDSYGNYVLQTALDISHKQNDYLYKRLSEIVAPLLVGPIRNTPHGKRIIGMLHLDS

B1: Id_ii_S4_P3E.2_K3.1_C3.2_[C-2T]_[T-1C]_H3.1_A3.1_F3.1_T3.2_[T9G]_[A10T] (ssRNA)
RNA: UUUGACAACUGAUCGUUCUUUCUUCUGUAUAUAGUUUCUUUCUCGAUCAGUUGUCUUU
B2: Id_ii_S4_P3E.2_K3.1_C3.2_[C-2T]_[T-1C]_H3.1_A3.1_F3.1_T3.2_[T9C] (ssRNA)
RNA: B1 RNA with G34C, U35A
B3: Id_ii_S4_P3E.2_K3.1_C3.2_[C-2A]_[T-1G]_H3.1_A3.1_F3.1_T3.2_[T9A]_[A10G] (ssRNA)
RNA: B1 RNA with U24A, C25G, G34A, U35G
B4: Id_ii_S4_P3E.2_K3.1_C3.2_[C-2T]_[T-1C]_H3.1_A3.1_F3.1_T3.2_[T9C]_[A10T] (ssRNA)
RNA: B1 RNA with G34C
B5: Id_ii_S4_P3E.2_K3.1_C3.2_[T-1A]_H3.1_A3.1_F3.1_T3.2_[T9A] (ssRNA)
RNA: B1 RNA with U24C, C25A, G34A, U35A
B6: Id_ii_S4_P3E.2_K3.1_C3.2_[C-2T]_H3.1_A3.1_F3.1_T3.2_[T9G]_[A10T] (ssRNA)
RNA: B1 RNA with C25U
B7: Id_ii_S4_P3E.2_K3.1_C3.2_[T-1C]_H3.1_A3.1_F3.1_T3.2_[T9C]_[A10C] (ssRNA)
RNA: B1 RNA with U24C, G34C, U35C
B8: Id_ii_S4_P3E.2_K3.1_C3.2_[C-2T]_[T-1C]_H3.1_A3.1_F3.1_T3.2_[T9A]_[A10T] (ssRNA)
RNA: B1 RNA with G34A
B9: Id_ii_S4_P3E.2_K3.1_C3.2_[C-2A]_H3.1_A3.1_F3.1_T3.2_[A10G] (ssRNA)
RNA: B1 RNA with U24A, C25U, G34U, U35G
B10: Id_ii_S4_P3E.2_K3.1_C3.2_[C-2A]_[T-1C]_H3.1_A3.1_F3.1_T3.2_[A10G] (ssRNA)
RNA: B1 RNA with U24A, G34U, U35G
B11: Id_ii_S4_P3E.2_K3.1_C3.2_[C-2A]_[T-1C]_H3.1_A3.1_F3.1_T3.2_[A10C] (ssRNA)
RNA: B1 RNA with U24A, G34U, U35C
B12: Id_ii_S4_P3E.2_K3.1_C3.2_[C-2T]_H3.1_A3.1_F3.1_T3.2_[T9A]_[A10C] (ssRNA)
RNA: B1 RNA with C25U, G34A, U35C
B13: Id_ii_S4_P3E.2_K3.1_C3.2_[T-1G]_H3.1_A3.1_F3.1_T3.2_[A10T] (ssRNA)
RNA: B1 RNA with U24C, C25G, G34U
B14: Id_ii_S4_P3E.2_K3.1_C3.2_[C-2A]_H3.1_A3.1_F3.1_T3.2_[A10T] (ssRNA)
RNA: B1 RNA with U24A, C25U, G34U
B15: Id_ii_S4_P3E.2_K3.1_C3.2_[T-1A]_H3.1_A3.1_F3.1_T3.2 (ssRNA)
RNA: B1 RNA with U24C, C25A, G34U, U35A
B16: Id_ii_S4_P3E.2_K3.1_C3.2_[C-2A]_H3.1_A3.1_F3.1_T3.2_[T9A] (ssRNA)
RNA: B1 RNA with U24A, C25U, G34A, U35A
B17: Id_ii_S4_P3E.2_K3.1_C3.2_[C-2T]_H3.1_A3.1_F3.1_T3.2_[T9A] (ssRNA)
RNA: B1 RNA with C25U, G34A, U35A
B18: Id_ii_S4_P3E.2_K3.1_C3.2_[C-2A]_[T-1A]_H3.1_A3.1_F3.1_T3.2_[A10G] (ssRNA)
RNA: B1 RNA with U24A, C25A, G34U, U35G
B19: Id_ii_S4_P3E.2_K3.1_C3.2_[T-1C]_H3.1_A3.1_F3.1_T3.2_[A10T] (ssRNA)
RNA: B1 RNA with U24C, G34U
B20: Id_ii_S4_P3E.2_K3.1_C3.2_[T-1G]_H3.1_A3.1_F3.1_T3.2_[T9A]_[A10C] (ssRNA)
RNA: B1 RNA with U24C, C25G, G34A, U35C
B21: Id_ii_S4_P3E.2_K3.1_C3.2_[T-1G]_H3.1_A3.1_F3.1_T3.2_[T9C]_[A10C] (ssRNA)
RNA: B1 RNA with U24C, C25G, G34C, U35C
B22: Id_ii_S4_P3E.2_K3.1_C3.2_[T-1G]_H3.1_A3.1_F3.1_T3.2_[T9A]_[A10G] (ssRNA)
RNA: B1 RNA with U24C, C25G, G34A, U35G
B23: Id_ii_S4_P3E.2_K3.1_C3.2_[T-1C]_H3.1_A3.1_F3.1_T3.2_[T9G]_[A10T] (ssRNA)
RNA: B1 RNA with U24C
B24: Id_ii_S4_P3E.2_K3.1_C3.2_[T-1C]_H3.1_A3.1_F3.1_T3.2_[T9C]_[A10G] (ssRNA)
RNA: B1 RNA with U24C, G34C, U35G
B25: Id_ii_S4_P3E.2_K3.1_C3.2_[C-2A]_[T-1C]_H3.1_A3.1_F3.1_T3.2_[A10T] (ssRNA)
RNA: B1 RNA with U24A, G34U
B26: Id_ii_S4_P3E.2_K3.1_C3.2_[C-2T]_H3.1_A3.1_F3.1_T3.2_[A10T] (ssRNA)
RNA: B1 RNA with C25U, G34U
B27: Id_ii_S4_P3E.2_K3.1_C3.2_[C-2T]_H3.1_A3.1_F3.1_T3.2_[T9C]_[A10T] (ssRNA)
RNA: B1 RNA with C25U, G34C
B28: Id_ii_S4_P3E.2_K3.1_C3.2_[C-2A]_[T-1C]_H3.1_A3.1_F3.1_T3.2_[T9A]_[A10T] (ssRNA)
RNA: B1 RNA with U24A, G34A
B29: Id_ii_S4_P3E.2_K3.1_C3.2_H3.1_A3.1_F3.1_T3.2_[T9G]_[A10T] (ssRNA)
RNA: B1 RNA with U24C, C25U
B30: Id_ii_S4_P3E.2_K3.1_C3.2_[C-2T]_H3.1_A3.1_F3.1_T3.2_[A10C] (ssRNA)
RNA: B1 RNA with C25U, G34U, U35C
B31: Id_ii_S4_P3E.2_K3.1_C3.2_[T-1C]_H3.1_A3.1_F3.1_T3.2_[A10G] (ssRNA)
RNA: B1 RNA with U24C, G34U, U35G
B32: Id_ii_S4_P3E.2_K3.1_C3.2_[C-2A]_H3.1_A3.1_F3.1_T3.2_[T9A]_[A10G] (ssRNA)
RNA: B1 RNA with U24A, C25U, G34A, U35G
B33: Id_ii_S4_P3E.2_K3.1_C3.2_[C-2T]_H3.1_A3.1_F3.1_T3.2 (ssRNA)
RNA: B1 RNA with C25U, G34U, U35A
B34: Id_ii_S4_P3E.2_K3.1_C3.2_[T-1A]_H3.1_A3.1_F3.1_T3.2_[T9A]_[A10C] (ssRNA)
RNA: B1 RNA with U24C, C25A, G34A, U35C
B35: Id_ii_S4_P3E.2_K3.1_C3.2_[C-2T]_[T-1A]_H3.1_A3.1_F3.1_T3.2_[T9C]_[A10T] (ssRNA)
RNA: B1 RNA with C25A, G34C
B36: Id_ii_S4_P3E.2_K3.1_C3.2_[T-1A]_H3.1_A3.1_F3.1_T3.2_[T9G]_[A10C] (ssRNA)
RNA: B1 RNA with U24C, C25A, U35C
B37: Id_ii_S4_P3E.2_K3.1_C3.2_[C-2T]_H3.1_A3.1_F3.1_T3.2_[T9C]_[A10C] (ssRNA)
RNA: B1 RNA with C25U, G34C, U35C
B38: Id_ii_S4_P3E.2_K3.1_C3.2_[C-2T]_[T-1A]_H3.1_A3.1_F3.1_T3.2_[A10T] (ssRNA)
RNA: B1 RNA with C25A, G34U
B39: Id_ii_S4_P3E.2_K3.1_C3.2_[C-2T]_[T-1A]_H3.1_A3.1_F3.1_T3.2_[T9C]_[A10C] (ssRNA)
RNA: B1 RNA with C25A, G34C, U35C
B40: Id_ii_S4_P3E.2_K3.1_C3.2_[C-2T]_[T-1C]_H3.1_A3.1_F3.1_T3.2_[A10T] (ssRNA)
RNA: B1 RNA with G34U
B41: Id_ii_S4_P3E.2_K3.1_C3.2_[C-2T]_[T-1A]_H3.1_A3.1_F3.1_T3.2_[T9G]_[A10C] (ssRNA)
RNA: B1 RNA with C25A, U35C
B42: Id_ii_S4_P3E.2_K3.1_C3.2_[C-2A]_[T-1A]_H3.1_A3.1_F3.1_T3.2_[T9A]_[A10G] (ssRNA)
RNA: B1 RNA with U24A, C25A, G34A, U35G
B43: Id_ii_S4_P3E.2_K3.1_C3.2_[T-1C]_H3.1_A3.1_F3.1_T3.2_[T9C]_[A10T] (ssRNA)
RNA: B1 RNA with U24C, G34C
B44: Id_ii_S4_P3E.2_K3.1_C3.2_[T-1G]_H3.1_A3.1_F3.1_T3.2 (ssRNA)
RNA: B1 RNA with U24C, C25G, G34U, U35A
B45: Id_ii_S4_P3E.2_K3.1_C3.2_[T-1C]_H3.1_A3.1_F3.1_T3.2_[T9G]_[A10C] (ssRNA)
RNA: B1 RNA with U24C, U35C
B46: Id_ii_S4_P3E.2_K3.1_C3.2_[T-1C]_H3.1_A3.1_F3.1_T3.2_[T9A]_[A10T] (ssRNA)
RNA: B1 RNA with U24C, G34A
B47: Id_ii_S4_P3E.2_K3.1_C3.2_[C-2A]_[T-1G]_H3.1_A3.1_F3.1_T3.2_[T9A] (ssRNA)
RNA: B1 RNA with U24A, C25G, G34A, U35A
B48: Id_ii_S4_P3E.2_K3.1_C3.2_[C-2T]_[T-1A]_H3.1_A3.1_F3.1_T3.2_[T9A]_[A10C] (ssRNA)
RNA: B1 RNA with C25A, G34A, U35C
B49: Id_ii_S4_P3E.2_K3.1_C3.2_[C-2T]_[T-1A]_H3.1_A3.1_F3.1_T3.2_[T9A] (ssRNA)
RNA: B1 RNA with C25A, G34A, U35A
B50: Id_ii_S4_P3E.2_K3.1_C3.2_[T-1C]_H3.1_A3.1_F3.1_T3.2 (ssRNA)
RNA: B1 RNA with U24C, G34U, U35A
B51: Id_ii_S4_P3E.2_K3.1_C3.2_[C-2T]_[T-1C]_H3.1_A3.1_F3.1_T3.2_[T9A]_[A10C] (ssRNA)
RNA: B1 RNA with G34A, U35C
B52: Id_ii_S4_P3E.2_K3.1_C3.2_[C-2A]_[T-1A]_H3.1_A3.1_F3.1_T3.2_[T9A]_[A10C] (ssRNA)
RNA: B1 RNA with U24A, C25A, G34A, U35C

Target: T1, PUF4 RNA-binding domain
Assay: Mg; RNA-MaP; 20 mM Na-HEPES pH 7.4, 30 mM KOAc, 0.75 mM MgCl2, 0.1% Tween-20, 5% glycerol, 0.1 mg/mL BSA, 2 mM DTT; 25 C; 0.0125-409.6 nM protein
Details: tags: N-His6-TEV cleaved; C-SNAP kept, Cy3B-labelled; label: tethered on chip by stalled RNA polymerase

Binder	Kd
B1	3.63 nM
B2	9.13 nM
B3	9.13 nM
B4	2.78 nM
B5	5.28 nM
B6	2.14 nM
B7	2.05 nM
B8	1.51 nM
B9	10.6 nM
B10	39.2 nM
B11	2.26 nM
B12	4.42 nM
B13	1.48 nM
B14	2.72 nM
B15	1.73 nM
B16	11.8 nM
B17	6.6 nM
B18	7.52 nM
B19	1.16 nM
B20	8.59 nM

Binder	Kd
B21	11.3 nM
B22	6.69 nM
B23	1.77 nM
B24	6.54 nM
B25	2.68 nM
B26	1.75 nM
B27	2.81 nM
B28	2.65 nM
B29	3.88 nM
B30	1.81 nM
B31	1.76 nM
B32	10.2 nM
B33	2.14 nM
B34	4.63 nM
B35	6.04 nM
B36	2.75 nM
B37	2.87 nM
B38	5.5 nM
B39	6 nM
B40	1.29 nM

Binder	Kd
B41	6.05 nM
B42	13.3 nM
B43	1.47 nM
B44	1.4 nM
B45	2 nM
B46	1.23 nM
B47	10.8 nM
B48	15.9 nM
B49	20.1 nM
B50	0.873 nM
B51	2.96 nM
B52	9.36 nM
UCUCUUCGUACUAUUAUCUCUU (ssRNA) [Ib_S1_P5E.1_K5.1_C5.1_H5.1_[T1C]_A5.1_[T5C]_F5.1_T5.1]	592 nM
UCUCUUUGUAUGAUUAUCUCUU (ssRNA) [Ia_S1_P5E.1_K5.1_C5.1_H5.1_A5.1_[T6G]_F5.1_T5.1]	23 nM
UCUCUUUGCUUUAUUAUCUCUU (ssRNA) [Ib_S1_P5E.1_K5.1_C5.1_H5.1_[T3C]_[A4T]_A5.1_F5.1_T5.1]	> 2300 nM
UCUCUUCGUAAUAUUAUCUCUU (ssRNA) [Ib_S1_P5E.1_K5.1_C5.1_H5.1_[T1C]_A5.1_[T5A]_F5.1_T5.1]	2020 nM
UCUCUUAGUACUAUUAUCUCUU (ssRNA) [Ib_S1_P5E.1_K5.1_C5.1_H5.1_[T1A]_A5.1_[T5C]_F5.1_T5.1]	1400 nM
UCUCUUUGACUUAUUAUCUCUU (ssRNA) [Ib_S1_P5E.1_K5.1_C5.1_H5.1_[T3A]_[A4C]_A5.1_F5.1_T5.1]	> 2300 nM
